Assay results reported in patent JP2020148511A (dated 2020).

B1: 抗体A1 (VHH antibody having the amino acid sequence of SEQ ID NO: 1) (VHH)
VHH: QLQLVESGGGLVQAGGSLRLSCAASGSAFSLYAMGWHRQAPGKQRELVAYITNGDITNYADSVQGRVIISRDNAKNTVYLHMNSLKPEDTAVYYCYAVGGRTFWGQGTQVTVSS
B2: 抗体A2 (VHH antibody having the amino acid sequence of SEQ ID NO: 2) (VHH)
VHH: QVQLVESGGGLVQTGGPLRLSCAVSDRTDSNYAMGWFRQAPGKEREFVAAISGTGYVTGYADSARNRFTLSRDNGKNAVYLQMNSLEPADTAVYYCAATSDQRYPGPRSSGYDYWGQGTQVTVSS
B3: 抗体A3 (VHH antibody having the amino acid sequence of SEQ ID NO: 3) (VHH)
VHH: EVQLVESGGGLVQPGGSLSLSCAASGFTFSNYYMGWFRQAPGKERQSLATVNSGGTGEAYADSIRGRFTISRDNAKNTVTLQMSSLQPEDTAVYYCARVDGRVLSTIVVSYDYWGQGTQVTVSS
B4: 抗体A4 (VHH antibody having the amino acid sequence of SEQ ID NO: 4) (VHH)
VHH: EVQLVESGGGLVQAGDSLRLSCAASGRTFINLDMGWFRQPPGKEREYVAAITRNGAITSYADSAKGRFTISRDNAKNTVSLEMNSLKPEDTGVYYCAAYSISNYGSGWYKPDYWGQGAQVTVSS

Legend:
[1] = biological target: A型インフルエンザウィルス亜型H1N1(A/Puerto Rico/8/1934)の核内タンパク質(NP抗原) (Influenza A virus H1N1 (A/Puerto …, UniProt P03466 1-498)); assay: sandwich ELISA, […] (capture) […]
[2] = biological target: H1N1インフルエンザウィルスA型(A/Puerto Rico/8/34/Mount Sinai)由来のリコンビナント核内タンパク質 (Influenza A virus H1N1 (A/Puerto …, UniProt P03466 1-498)); assay: phage ELISA, NP coated at 2 ug/mL, anti-M13 detection, A450

Row | Binder | binding result [1] | binding result [2]
1 | B1 | binds | 
2 | B2 | binds | 
3 | B3 | binds | binds
4 | B4 | binds | 
